Test results as given in the nanobody polyreactivity screen of Harvey et al. (2022).

Assay: yeast display, Sf9 membrane polyspecificity reagent, FACS + sequencing; frameworks hold sequencing errors
How it was run: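 After 36–48 hours of galactose induction, yeast (Saccharomyces cerevisiae BJ5465) displaying a synthetic nanobody library were stained at 4 °C for 1 hour with 10% biotinylated, detergent-solubilized Sf9 membrane reagent. Streptavidin microbeads enriched the stained cells before FACS sorting into low and high (top ~1%) gates on anti-HA and streptavidin fluorescence. Each clone's polyreactivity label reflects its gate of origin.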

Sequence	polyreactivity (PSR sort gate)
QVQLVESGGGLVQAGGSLRLSCAASGFTFYKNTMGWYRQAHGTERELVAAISSSGSSTYYADSVKGRFTISRDNAKNTVYLQMNSLKPEDTAVYYCAAGRFAYHDDYWGQGTQVTVSS	high polyreactivity
QVQLVESGGGLVQAGGSLLLSCAASGRIINYYAMGWYRQAPGKEREFVAAITRSGGRTYYADSVKGRFTISRDNAKNTVYLQMNSLKPEDTAVYYCAAPYGTYAYDYWGQGTQVTVSS	high polyreactivity
QVQLVESGGGLVQAGGSLRLSCAASGLIIRYYAMGWYRQARGKERELVAAISYNGGSTYYADSVKGRFTISRDNAKNTVYLQMNSLKPEDTAVYYCAARLYGRYGYWGQGTQVTVSS	high polyreactivity
QFQLVESVGGLVQAGGSLRLSCAASGTTIPSYAMGWYRQAPGKERELVASITYSDGTTRYADSVKGRFTISRDNAKNTVYLQMNSLKPEDTAVYYCNAVYYREGMDYWGQGTQVTVSS	low polyreactivity
QVQLVESGGGLVQAGGSLRLSCAASGSTFVPNTMGWYRQAPGKERELVADITYSGGSTYYADSVKGRFTISRDNAKNTVYLQMNSLKPEDTAVYYCAAEGTTWYYDMDYWGQGTQVTVSS	low polyreactivity
QVQLVESGGGLVQAGGSLRLSCAASGRTFVVNAMGWYSPAPGKEREFVAGISVRGGITYYADSVKGRFTISRDNAKNTVYLQMNSLKPEDTAVYYCAAYILDYGGDQRIFDYWGQGTQVTVSS	low polyreactivity
QVHLVESGGGLVQAGGSLRLSSAASGFICYQYAMGWYRQAPGKERELVAAISRRGGGTYYADSVKGRFTISRDNAKNTVYLEMNRLKPEDTAVYYCNTDRLGRITFGGYDYWGQGTQVTVSS	high polyreactivity
QVQLVESGGGLVQAGGSLRLSCAASGRTFEYYAMGWYRQAPGKERELVASISFGGGSTYADSVKGRFTISRDNAKNTVYLQMNSLKPEDTAVYYCAATGGWYKHWFDYWGQGTQVTVSS	low polyreactivity
QVQLVESGGGLVQAGGSLRISCAASGSIFGVNAMGWYRQAPGKERELVASITGGDSTNYADSVKGRFTISRDNAKNTVYLQMNSLKPEDNEVYYCAKDHYYRYEEGDYWGQATQVTVSS	low polyreactivity
QVQLVESGGGLVQAGGRLRLSCAASGSTFGANAMGWYRQAPGKEREFVAAISRSGVRTYYADSVKGRFTISRDNAKNTVFLQMNSLKPEDTAVYYCAADGYWWTDTRYDYCGQGTQVTVSS	low polyreactivity
QVQLVESGGGLVQAGGSLRLSCAASGRIYSTNAMRWYRQAPGKEREFVAAIYWIGGSTYYADSVKGRFTISRDNAKNTVYLQMNSLKPEDTAVYYCAAGVYDDYPWSYDIFNLYDYWGQGTQVTVSS	low polyreactivity
QVHLVESGGGLVQAGGSLRLSCAASGGTFGYYAMGWYRPAPGKERELVAAINARGDSTYYADSVKGRFTISRDNAKNTVYFLMNSLKPEDTAVYYCNTGIALFGYKYHYWGQGTQVTVSS	low polyreactivity
QDQLVESGGGLVQAGGSLRLSCAASGSIFKHNDMGWYRQAPGKERELVAAISRSGGSTYYAHSVKGRFTISRDNAKNTVYLLMNSLKPEDTAVYYCNAGRRTARYGYWGQGTQVTVSS	high polyreactivity
QVQLVESGGGLVQAGGRLRLSCAASGSTIRLYAKGWYRQAPGKERELVAAISVSGGSTHYADSVKGRFTISRDNAKNTVYLQMNSLKPEDTAVYYCNAAGNPVSRYHYDYWGQGTQVTVSS	high polyreactivity
QVQLVESGGGLVQAGGSLLLSCAASGIIFSSYVMGWYRQAHGKERELVAAISKSGARPSYADSVKGRFTISRDNAKNTVYLQMNSLKPEDTAVYYCAAAWHTAYWVGSDSQGGGYWGQGTQVTVSS	low polyreactivity
QVQLVESGGGLVQAGGSLRLSCAASGRIFSRYAMGWYRQAPGKERELVATISSGGGTYYADSVKGRFTISRDNAKNTVYLQMNSLKPEDTAVYYCAAASYSGHGRYDDWGQGTQVPVSS	high polyreactivity
QVQLVESGGGLVQAGGSLRLSCAASGSIFGYYAMGWYRQAPGKERELVAVITSSGGGTYYADSVKGRFTISRDNAKNTVYLQMNSLKPEDTAVYYCAKLGTRRYDSWGQGTQVTVSS	high polyreactivity
QVQLVESGGGLVQAGGSLRLSCAASGRIFVYNTMGWYRQAPGKERELVAAMSWSGVGTYYADSVKGRFTISRDKAKNTVYLQMNSLKPEDTAVYYCNAWIYYGYFIFDYWGQGTQVTVSS	high polyreactivity
QDQLVDSGGGLVQAGGSLRLSCASSGGTFSYYTMGWYRQAPGKERELVARISKNGGRTYYADSVKGRFTISRDNAKNTVYLQLNSLKPEDTAVYYCNAAGRTYDFSGGRTMEYWGQGTQVTVSS	high polyreactivity
QVQLVESGGGLVQAGGSLRLSCAASGRIWYYAMGWYRQAPGKERELVAAISFSGGTTYYADSVKGRFTISRDNAKNTVYFPMNSLKPEDTGVYYCNKVSVGRYKRDYWGQGTQVTVSS	high polyreactivity
QVQLVESGGGLVQAGGSLRLSCAASGFTFGWYAMGWYRQAPGKERELVADITYNDASTYYADSVKGRFTISRDNAKNTVYLQMNSLKPEDTAVYYCNAVHRRYLVTHPYDYWGQGTQVTVSS	low polyreactivity
QVQLVDSGGGLVQAGGSLRLSCAASGSIFRPYARGWYRQAPWKERELVASIRWYDGSTYYADSVKGRFTSSRDNAMNTVYLQMNSLKPEDSAVYYCAADYYSQLAGIFDYWGQGTQVTVSS	low polyreactivity

Sequence	polyreactivity (PSR sort gate)
QVQLVESGGGLVQAGGSLRLSCAASGRTFKGYVMGWYRQAPGKERELVAAITYGGGSTYYADSVKGRFTISRDNAKNTVYLQMNSLKPEDTAVYYCAADSIYGTKYDYWGQGTQVTVSS	high polyreactivity
QVQLVESGVGLVQAGGSLRLSCAASGRTFPYNAMGWYRQAPGKERELVAVISSSGGSTYYADSVKGRFTISRDNAKNTVYLQMNSLKPEDTAVYYCNTRPYFYRRPGYRYSGYDYWGLGTQVTVSS	high polyreactivity
QVQLVESGGGLVQAGGSLRLTCAASGFTFHSYAMGWYRQSPGTERELVAAISARGGSTYYADSVKGRLTISRDNAKNTVYLQMNSLKPEDTAFYYCAAYSYQVRFYYWGQGTQVTVSS	high polyreactivity
QVQLVESGGGLVQAGGSLRLSCAASGSIFTYYAMGWYRQAPGKERELVADIRWSGGSTYYADSVKGRFTISRDNAKNTVYLQMNSLKPEDTAVYFCNARYYSYWPIYNFDYWGQGTQVTVSS	low polyreactivity
QVQLVESGGGLVQAGGSRRLSCAASGSNFRNNAIGWYRQAPGKERELVAVISRRSGNTYYADSVKGRFTISRDNGKKTVYLPMHSLKPEDTAVYYCASDYCKSSIRGDYWGQGTQVTVSS	low polyreactivity
QVQLVESGGGLVQAGGILRLSCAASGRIIRSYAMGWYRHAPGKERELVAAITSGGSTNYADSVKGRFTISRDNANNTVYLQMNSLKPEDTAVYYCAARWPWYGKLRYYYWGQGTQVTVSS	high polyreactivity
QVQLVESGGGLVQAGGSLRLSCAASGSIFGGYAMGWYRQAPGKERELVAAISSSGGSTYYADSVKGRFTISRDNAKNTVYLQMHSLKPEDTAVYYCASSYHGRSYHLNYWGQGTQVTVSS	high polyreactivity
QVQLVESGGGLVQAGGSLRLSCAASGGTFPAYTMGWYRQAPGKERELVAAITWSGGNTYYADSVKGRFTISRDNAKNTVYLQMNSLKPQDTAVYYCAAEYWQYQWSVRIDYEYWGQGTQVTVSS	high polyreactivity
QVQLVESGGGLVQAGGSLRLSCAASGRTFRIYAMGWYRQAPGKERELVASISWSGGSTYYADSVKGRFTISRDNAKNTVYLQMNSLKPEDTAVYYCAADYPFIALYDYWGQGTQVTVSS	low polyreactivity
QVQIVESGGGLVQEGGSLRLSFAASGSTFYYYPMGWYRQAPGKERELVAAITSGDTTNYADSVKGRFTISRDNAKNTVYLQMNSLKPEDTAVYYCAVDLNTTAFYPVAATYLDDYWGQGTQVTVSS	low polyreactivity
QVQLVESGGGLVQAGGSLRLSCAASGITFDSYALGSYRQAPGKERELVAAISGSGGSTYYADSVKGRFTISRDNAKNTVYLQMNSLKPEDTAVYYCAADWYPTGFYYWGQGTQVTVSS	low polyreactivity
QVHLVESGGGLVQAGGSLRLSCAASGRIFGDYAMGWYRQATGKERELVAAINSSGTSTNYADSVKGRFTFSRDNAKNTVYLQMNSLKPEDTAVYYCNAEGTYRPEYDSWGQGTQVTVSS	low polyreactivity
QVQLVESGGGLVQAGGSLRLSCAASGRTFTKNAMGWYRQAPGKEREFVAAISKSTGSTYYADSVKGRFTISRDNAKNTVYLQMNSLKPEDTAVYYCNARYRFFIQARWGYIFGYWGQGTQVTVSS	high polyreactivity
QVQLVESGGGLVQAGGSLRLSCAASGRIFHIYAMGWYRQAPGKERELVAAISSDGSTYYADSVKGRFTISRDNAKNTVYLQMNSLKPEDTAVYYCAVESPQGRQCYEYWGQGTQVTVSS	low polyreactivity
QVQLVESGGGLVQAGGSLRLSCAASGFTFGYYAMGWYRQARGKERELVAAISSRGSGTYYADSVKGRFTISRDNAKNTVYLQMNSLKPEDTAVYYCARPAALLGYWGQGTQVTVSS	low polyreactivity
QVQLVESGGGLVQAGGSLRLSCAASGSTYPYYAMGWYRQAPGKERELVAAITSGGSTNYADSVKGRFTISRDNAKNTVYLQMNSLKPEDTAVYYCNADSSGWFPFDYWGQGTQVTVSS	low polyreactivity
QVQLVESGGRLVQAGGSLRLSCAASGFILLAYAMGWYRQAHGKERELVAAITSGGSTHYADSVKGRFTISRDNAKNTVYLQMNSLKPEDTAVYYCAKDTVFRYSGNTYGYWGQGTQVTVSS	low polyreactivity
QVQIVESRVGLVQAGGSLRLSCAAYGSIFYYNAMGWYRQAPGKERELVAAITSSGGSTYADSVKGRFTISRDNAKNTVYLQMNSLKQEDTAVYYCATVAHGLWSGSGYIYAYDYWGQGTQVSVSS	low polyreactivity
QVQLVESGRGLVQAGGSLRLSCAASASTFTLNTMGWYREAAGKERELVAAITASGGRTFYADSVKGPFTISRDNANNTVYLQMTSLKPEDTAFYYCAKRPYGWVSRYDYWGQVTQVTVSS	low polyreactivity
QDQLVESGGGLVQAGGSLRLSCAASGFIFGNYALGWYRQAPGKERELVATITWRGGSTYYADSVKGRFTISRDNAKNTVYLQMNSLKPEDTAVYYCARPYASYSSFYYYGYWGQGTQVTVSS	high polyreactivity
QVQLVESGGGLVQAGGSLRLSCAASGRTFVYYAMGWYRQAPGKERELVAAIRRDTRTYYADSVKGRFTISRDNAKNTVYLQMNSQTPEDTAVYYCAADDPWHYDFDYWGQGTQVTVSS	low polyreactivity
